This assay addresses MUC5AC antigen (human, UniProt P98088). Description: SPR. Background: Surface plasmon resonance follows binding to a sensor surface in real time, without labels.

Experimental findings from patent publication EP4762086 are described below.

“And” between values parts separate entries of the source, which are not always exact repeats. Identical values can stand only once.

B1: NEO-102 (Ensituximab) (antibody, V domains shown)
VH: QVQLKESGPDLVAPSQSLSITCTVSGFELSKFGVIWVRQPPGKGLEWLGVIWGDGSTVYNSKLISRLSISKENSKSQVFLKLNSLQADDTATYYCVKPGGDYWGHGTSVTVSS
VL: QVVLTQSPVIMSASPGEKVTMTCSASSSISYMYWYQQKPGTSPKRWIYDTSKLGSGVPARFSGSGSGTSYSLTISNMEAGDAATYYCHQRDSYPWTFGGGTNLEIK
For B1, the Kd was 7.38 nM and 5.6 nM.

The Kd is the concentration at which binding is half-saturated. A low value points to higher affinity.
